Assays:
[1] = molecular target: SOD1 oxidized with a mixture of ascorbate and copperchloride (Homo sapiens (Human)) (UniProt P00441); experiment: ELISA rep2; 1 hr CuCl
[2] = molecular target: SOD1 oxidized with H2O2 (Homo sapiens (Human)) (UniProt P00441); experiment: ELISA rep3; 10 mM H2O2
[3] = molecular target: natively folded SOD1 (SOD1 in PBS) (Homo sapiens (Human)) (UniProt P00441); experiment: ELISA rep2; SOD-PBS
[4] = molecular target: SOD1 oxidized with H2O2 (Homo sapiens (Human)) (UniProt P00441); experiment: ELISA rep1; 1 mM H2O2
[5] = molecular target: SOD1 oxidized with H2O2 (Homo sapiens (Human)) (UniProt P00441); experiment: ELISA rep2; 100 uM H2O2
[6] = molecular target: SOD1 oxidized with a mixture of ascorbate and copperchloride (Homo sapiens (Human)) (UniProt P00441); experiment: ELISA rep3; 6 hr CuCl
[7] = molecular target: SOD1 oxidized with H2O2 (Homo sapiens (Human)) (UniProt P00441); experiment: ELISA rep3; 1 mM H2O2
[8] = molecular target: SOD1 oxidized with H2O2 (Homo sapiens (Human)) (UniProt P00441); experiment: ELISA rep2; 10 mM H2O2
[9] = molecular target: SOD1 oxidized with a mixture of ascorbate and copperchloride (Homo sapiens (Human)) (UniProt P00441); experiment: ELISA rep2; 3 hr CuCl
[10] = molecular target: SOD1 oxidized with a mixture of ascorbate and copperchloride (Homo sapiens (Human)) (UniProt P00441); experiment: ELISA rep3; 0 hr CuCl
[11] = molecular target: denatured or misfolded SOD1 (SOD1 in denaturation buffer with 6M GdnHCl) (Homo sapiens (Human)) (UniProt P00441); experiment: ELISA rep3; SOD-Gnd
[12] = molecular target: SOD1 oxidized with a mixture of ascorbate and copperchloride (Homo sapiens (Human)) (UniProt P00441); experiment: ELISA mean; 0 hr CuCl
[13] = molecular target: natively folded SOD1 (SOD1 in PBS) (Homo sapiens (Human)) (UniProt P00441); experiment: ELISA rep3; SOD-PBS
[14] = molecular target: SOD1 oxidized with a mixture of ascorbate and copperchloride (Homo sapiens (Human)) (UniProt P00441); experiment: ELISA rep3; 3 hr CuCl
[15] = molecular target: SOD1 oxidized with a mixture of ascorbate and copperchloride (Homo sapiens (Human)) (UniProt P00441); experiment: ELISA rep2; 6 hr CuCl
BSA control in PBS [16] = molecular target: BSA control in PBS (UniProt P02769); experiment: ELISA rep2; BSA-PBS
[17] = molecular target: SOD1 oxidized with H2O2 (Homo sapiens (Human)) (UniProt P00441); experiment: ELISA rep1; 10 mM H2O2
[18] = molecular target: SOD1 oxidized with a mixture of ascorbate and copperchloride (Homo sapiens (Human)) (UniProt P00441); experiment: ELISA rep1; 6 hr CuCl
[19] = molecular target: SOD1 oxidized with a mixture of ascorbate and copperchloride (Homo sapiens (Human)) (UniProt P00441); experiment: ELISA rep1; 1 hr CuCl
[20] = molecular target: SOD1 oxidized with a mixture of ascorbate and copperchloride (Homo sapiens (Human)) (UniProt P00441); experiment: ELISA rep3; 1 hr CuCl
[21] = molecular target: SOD1 oxidized with H2O2 (Homo sapiens (Human)) (UniProt P00441); experiment: ELISA rep1; 100 uM H2O2
[22] = molecular target: SOD1 oxidized with a mixture of ascorbate and copperchloride (Homo sapiens (Human)) (UniProt P00441); experiment: ELISA rep1; 3 hr CuCl
BSA control in PBS [23] = molecular target: BSA control in PBS (UniProt P02769); experiment: ELISA mean; BSA-PBS
[24] = molecular target: SOD1 oxidized with H2O2 (Homo sapiens (Human)) (UniProt P00441); experiment: ELISA mean; 100 uM H2O2
[25] = molecular target: natively folded SOD1 (SOD1 in PBS) (Homo sapiens (Human)) (UniProt P00441); experiment: ELISA mean; SOD-PBS
[26] = molecular target: denatured or misfolded SOD1 (SOD1 in denaturation buffer with 6M GdnHCl) (Homo sapiens (Human)) (UniProt P00441); experiment: ELISA rep1; SOD-Gnd
[27] = molecular target: SOD1 oxidized with a mixture of ascorbate and copperchloride (Homo sapiens (Human)) (UniProt P00441); experiment: ELISA rep1; 0 hr CuCl
[28] = molecular target: SOD1 oxidized with a mixture of ascorbate and copperchloride (Homo sapiens (Human)) (UniProt P00441); experiment: ELISA rep2; 0 hr CuCl
BSA control in PBS [29] = molecular target: BSA control in PBS (UniProt P02769); experiment: ELISA rep1; BSA-PBS
[30] = molecular target: SOD1 oxidized with H2O2 (Homo sapiens (Human)) (UniProt P00441); experiment: ELISA rep2; 1 mM H2O2
BSA control in PBS [31] = molecular target: BSA control in PBS (UniProt P02769); experiment: ELISA rep3; BSA-PBS
[32] = molecular target: SOD1 oxidized with H2O2 (Homo sapiens (Human)) (UniProt P00441); experiment: ELISA mean; 1 mM H2O2
[33] = molecular target: SOD1 oxidized with a mixture of ascorbate and copperchloride (Homo sapiens (Human)) (UniProt P00441); experiment: ELISA mean; 6 hr CuCl
[34] = molecular target: SOD1 oxidized with a mixture of ascorbate and copperchloride (Homo sapiens (Human)) (UniProt P00441); experiment: ELISA mean; 1 hr CuCl
[35] = molecular target: SOD1 oxidized with H2O2 (Homo sapiens (Human)) (UniProt P00441); experiment: ELISA rep3; 100 uM H2O2
[36] = molecular target: denatured or misfolded SOD1 (SOD1 in denaturation buffer with 6M GdnHCl) (Homo sapiens (Human)) (UniProt P00441); experiment: ELISA mean; SOD-Gnd
[37] = molecular target: SOD1 oxidized with H2O2 (Homo sapiens (Human)) (UniProt P00441); experiment: ELISA mean; 10 mM H2O2
[38] = molecular target: natively folded SOD1 (SOD1 in PBS) (Homo sapiens (Human)) (UniProt P00441); experiment: ELISA rep1; SOD-PBS
[39] = molecular target: denatured or misfolded SOD1 (SOD1 in denaturation buffer with 6M GdnHCl) (Homo sapiens (Human)) (UniProt P00441); experiment: ELISA rep2; SOD-Gnd
[40] = molecular target: SOD1 oxidized with a mixture of ascorbate and copperchloride (Homo sapiens (Human)) (UniProt P00441); experiment: ELISA mean; 3 hr CuCl
[41] = molecular target: DSE-2-BSA antigen (human); experiment: indirect ELISA Exp #1
BSA control in GdnHCl [42] = molecular target: BSA control in GdnHCl (UniProt P02769); experiment: ELISA rep1
[43] = molecular target: denatured or misfolded SOD1 (SOD1 in denaturation buffer with 6M GdnHCl) (Homo sapiens (Human)) (UniProt P00441); experiment: ELISA rep1
BSA control in PBS [44] = molecular target: BSA control in PBS (UniProt P02769); experiment: ELISA rep1
[45] = molecular target: natively folded SOD1 (SOD1 in PBS) (Homo sapiens (Human)) (UniProt P00441); experiment: ELISA rep1
[46] = molecular target: denatured or misfolded SOD1 (SOD1 in denaturation buffer with 6M GdnHCl) (Homo sapiens (Human)) (UniProt P00441); experiment: ELISA, SOD1 minus BSA
[47] = molecular target: natively folded SOD1 (SOD1 in PBS) (Homo sapiens (Human)) (UniProt P00441); experiment: ELISA, SOD1 minus BSA
[48] = molecular target: human transferrin (human) (UniProt P02787); experiment: indirect ELISA, control antigen
[49] = molecular target: denatured or misfolded SOD1 (SOD1 in denaturation buffer with 6M GdnHCl) (Homo sapiens (Human)) (UniProt P00441); experiment: ELISA, unfolded vs natively folded SOD1
BSA control in GdnHCl [50] = molecular target: BSA control in GdnHCl (UniProt P02769); experiment: ELISA rep2
[51] = molecular target: denatured or misfolded SOD1 (SOD1 in denaturation buffer with 6M GdnHCl) (Homo sapiens (Human)) (UniProt P00441); experiment: ELISA rep2
BSA control in PBS [52] = molecular target: BSA control in PBS (UniProt P02769); experiment: ELISA rep2
[53] = molecular target: natively folded SOD1 (SOD1 in PBS) (Homo sapiens (Human)) (UniProt P00441); experiment: ELISA rep2
BSA control in GdnHCl [54] = molecular target: BSA control in GdnHCl (UniProt P02769); experiment: ELISA mean
[55] = molecular target: denatured or misfolded SOD1 (SOD1 in denaturation buffer with 6M GdnHCl) (Homo sapiens (Human)) (UniProt P00441); experiment: ELISA mean
BSA control in PBS [56] = molecular target: BSA control in PBS (UniProt P02769); experiment: ELISA mean
[57] = molecular target: natively folded SOD1 (SOD1 in PBS) (Homo sapiens (Human)) (UniProt P00441); experiment: ELISA mean
[58] = molecular target: DSE-2-BSA antigen (human); experiment: indirect ELISA Exp #2

Sequence of UniProt P02787 (P02787 20-698 limits assumed): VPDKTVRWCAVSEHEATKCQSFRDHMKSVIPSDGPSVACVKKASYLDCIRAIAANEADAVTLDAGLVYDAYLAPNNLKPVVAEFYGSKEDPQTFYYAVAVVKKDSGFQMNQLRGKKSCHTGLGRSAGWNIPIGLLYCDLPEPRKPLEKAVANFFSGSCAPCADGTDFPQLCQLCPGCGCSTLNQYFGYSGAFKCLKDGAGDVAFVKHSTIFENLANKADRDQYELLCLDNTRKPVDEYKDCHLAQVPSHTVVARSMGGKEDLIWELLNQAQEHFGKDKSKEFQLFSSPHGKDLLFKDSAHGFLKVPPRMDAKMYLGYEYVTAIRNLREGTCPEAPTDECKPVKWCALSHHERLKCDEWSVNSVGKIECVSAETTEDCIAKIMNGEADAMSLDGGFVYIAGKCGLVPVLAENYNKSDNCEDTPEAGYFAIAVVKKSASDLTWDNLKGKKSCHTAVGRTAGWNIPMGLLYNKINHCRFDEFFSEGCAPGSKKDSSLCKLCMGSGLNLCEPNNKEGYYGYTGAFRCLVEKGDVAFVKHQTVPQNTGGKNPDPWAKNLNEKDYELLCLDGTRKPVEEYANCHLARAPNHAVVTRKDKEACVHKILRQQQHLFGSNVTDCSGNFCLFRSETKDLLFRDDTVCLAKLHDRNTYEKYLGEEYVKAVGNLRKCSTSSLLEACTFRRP

Substance: anti-DSE2 IgG mAb clone 10E11C11 (antibody)
- absorbance [1]: 1.03
- absorbance [2]: 0.878
- absorbance [3]: 0.362
- absorbance [4]: 0.776
- absorbance [5]: 0.476
- absorbance [6]: 1.04
- absorbance [7]: 0.781
- absorbance [8]: 0.84
- absorbance [9]: 1.06
- absorbance [10]: 0.664
- absorbance [11]: 1.23
- absorbance [12]: 0.668
- absorbance [13]: 0.389
- absorbance [14]: 1.08
- absorbance [15]: 0.987
- absorbance (BSA control in PBS [16]): 0.098
- absorbance [17]: 0.836
- absorbance [18]: 1.04
- absorbance [19]: 1.02
- absorbance [20]: 1.03
- absorbance [21]: 0.489
- absorbance [22]: 1.06
- absorbance (BSA control in PBS [23]): 0.103
- absorbance [24]: 0.473
- absorbance [25]: 0.369
- absorbance [26]: 1.24
- absorbance [27]: 0.67
- absorbance [28]: 0.669
- absorbance (BSA control in PBS [29]): 0.12
- absorbance [30]: 0.752
- absorbance (BSA control in PBS [31]): 0.091
- absorbance [32]: 0.77
- absorbance [33]: 1.02
- absorbance [34]: 1.03
- absorbance [35]: 0.453
- absorbance [36]: 1.24
- absorbance [37]: 0.851
- absorbance [38]: 0.357
- absorbance [39]: 1.25
- absorbance [40]: 1.07

Substance: anti-DSE2 hybridoma clone 3H1 (antibody)
- absorbance [1]: 1.44
- absorbance [3]: 0.335
- absorbance [4]: 0.744
- OD450 [41]: 1.98 OD450
- OD450 (BSA control in GdnHCl [42]): 0.165 OD450
- OD450 [43]: 2.19 OD450
- OD450 (BSA control in PBS [44]): 0.161 OD450
- OD450 [45]: 0.257 OD450
- absorbance [5]: 0.425
- absorbance [8]: 0.726
- S-N (U) [46]: 1.99 OD450
- S-N (F) [47]: 0.251 OD450
- absorbance [9]: 1.62
- OD450 [48]: 0.081 OD450
- absorbance [12]: 0.558
- absorbance [15]: 1.49
- absorbance (BSA control in PBS [16]): 0.076
- absorbance [17]: 0.763
- absorbance [18]: 1.38
- absorbance [19]: 1.59
- absorbance [21]: 0.436
- absorbance [22]: 1.72
- absorbance (BSA control in PBS [23]): 0.077
- absorbance [24]: 0.43
- absorbance [25]: 0.338
- U/F [49]: 7.93 fold
- absorbance [26]: 2.29
- OD450 (BSA control in GdnHCl [50]): 0.162 OD450
- OD450 [51]: 2.1 OD450
- OD450 (BSA control in PBS [52]): 0.15 OD450
- OD450 [53]: 0.563 OD450
- absorbance [27]: 0.527
- absorbance [28]: 0.59
- absorbance (BSA control in PBS [29]): 0.078
- absorbance [30]: 0.717
- OD450 (BSA control in GdnHCl [54]): 0.164 OD450
- OD450 [55]: 2.15 OD450
- OD450 (BSA control in PBS [56]): 0.156 OD450
- OD450 [57]: 0.41 OD450
- absorbance [32]: 0.731
- absorbance [33]: 1.43
- absorbance [34]: 1.51
- absorbance [36]: 2.29
- absorbance [37]: 0.745
- absorbance [38]: 0.34
- absorbance [39]: 2.29
- OD450 [58]: 1.91 OD450
- absorbance [40]: 1.67

Source: US20110212097A1
